Changes are numbered by the printed parent chain. Names and notes keep the numbering of the source. Read-outs that look alike come from different tables or passages of the source.
Tests used:
[1] = target: EphA2, full length, R950T, expressed in U87 cells (human, UniProt P29317 24-976, R950T); assay: co-IP
[2] = target: EphB2 SAM domain penta-mutant L954K/T959R/A961P/K966R/N969Y (human); assay: ITC
EphA2 SAM domain R950T = target: T1, EphA2 SAM domain R950T (human, UniProt P29317 897-976, R950T); assay: ITC
T1 sequence (looked up): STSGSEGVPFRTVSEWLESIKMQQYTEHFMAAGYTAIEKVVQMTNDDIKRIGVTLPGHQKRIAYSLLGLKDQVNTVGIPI

[3] = target: T2, EphA2 SAM domain (wild type) (human, UniProt P29317 897-976); assay: ITC
T2 sequence (looked up): T1 sequence (looked up) with T54R

EphA2 SAM domain K917D = target: T3, EphA2 SAM domain K917D (human, UniProt P29317 897-976, K917D); assay: ITC
T3 sequence (looked up): T1 sequence (looked up) with K21D, T54R

EphA2 SAM domain K956D = target: T4, EphA2 SAM domain K956D (human, UniProt P29317 897-976, K956D); assay: ITC
T4 sequence (looked up): T1 sequence (looked up) with T54R, K60D

EphA2 SAM domain K956E = target: T5, EphA2 SAM domain K956E (human, UniProt P29317 897-976, K956E); assay: ITC
T5 sequence (looked up): T1 sequence (looked up) with T54R, K60E

EphA2 SAM domain Y960N = target: T6, EphA2 SAM domain Y960N (human, UniProt P29317 897-976, Y960N); assay: ITC
T6 sequence (looked up): T1 sequence (looked up) with T54R, Y64N

EphA2 SAM domain K945L = target: T7, EphA2 SAM domain K945L (human, UniProt P29317 897-976, K945L); assay: ITC
T7 sequence (looked up): T1 sequence (looked up) with K49L, T54R

[4] = target: T8, EphA2 SAM domain K945L/Y960N (human, UniProt P29317 897-976, K945L | Y960N); assay: ITC
T8 sequence (looked up): T1 sequence (looked up) with K49L, T54R, Y64N

EphA1 SAM domain = target: T9, EphA1 SAM domain (human, UniProt P21709 906-976); assay: ITC
T9 sequence (looked up): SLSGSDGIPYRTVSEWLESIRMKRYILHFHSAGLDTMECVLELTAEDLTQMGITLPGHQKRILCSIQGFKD

EphA2 SAM domain R950E = target: T10, EphA2 SAM domain R950E (human, UniProt P29317 897-976, R950E); assay: ITC
T10 sequence (looked up): T1 sequence (looked up) with T54E

[5] = target: T2, EphA2 SAM domain (wild type); assay: NMR titration
EphA2 SAM domain K917E = target: T11, EphA2 SAM domain K917E (human, UniProt P29317 897-976, K917E); assay: ITC
T11 sequence (looked up): T1 sequence (looked up) with K21E, T54R

[6] = target: T2, EphA2 SAM domain (wild type); assay: ITC; remark: listed apart in the source
[7] = target: T2, EphA2 SAM domain (wild type); assay: ITC; remark: listed apart in the source

B1: SHIP2 (SH2-linked inositol phosphatase 2), endogenous in U87 cells (enzyme, human (endogenous in U87), UniProt O15357 1-1258, looked up)
chain: MASACGAPGPGGALGSQAPSWYHRDLSRAAAEELLARAGRDGSFLVRDSESVAGAFALCVLYQKHVHTYRILPDGEDFLAVQTSQGVPVRRFQTLGELIGLYAQPNQGLVCALLLPVEGEREPDPPDDRDASDGEDEKPPLPPRSGSTSISAPTGPSSPLPAPETPTAPAAESAPNGLSTVSHDYLKGSYGLDLEAVRGGASHLPHLTRTLATSCRRLHSEVDKVLSGLEILSKVFDQQSSPMVTRLLQQQNLPQTGEQELESLVLKLSVLKDFLSGIQKKALKALQDMSSTAPPAPQPSTRKAKTIPVQAFEVKLDVTLGDLTKIGKSQKFTLSVDVEGGRLVLLRRQRDSQEDWTTFTHDRIRQLIKSQRVQNKLGVVFEKEKDRTQRKDFIFVSARKREAFCQLLQLMKNKHSKQDEPDMISVFIGTWNMGSVPPPKNVTSWFTSKGLGKTLDEVTVTIPHDIYVFGTQENSVGDREWLDLLRGGLKELTDLDYRPIAMQSLWNIKVAVLVKPEHENRISHVSTSSVKTGIANTLGNKGAVGVSFMFNGTSFGFVNCHLTSGNEKTARRNQNYLDILRLLSLGDRQLNAFDISLRFTHLFWFGDLNYRLDMDIQEILNYISRKEFEPLLRVDQLNLEREKHKVFLRFSEEEISFPPTYRYERGSRDTYAWHKQKPTGVRTNVPSWCDRILWKSYPETHIICNSYGCTDDIVTSDHSPVFGTFEVGVTSQFISKKGLSKTSDQAYIEFESIEAIVKTASRTKFFIEFYSTCLEEYKKSFENDAQSSDNINFLKVQWSSRQLPTLKPILADIEYLQDQHLLLTVKSMDGYESYGECVVALKSMIGSTAQQFLTFLSHRGEETGNIRGSMKVRVPTERLGTRERLYEWISIDKDEAGAKSKAPSVSRGSQEPRSGSRKPAFTEASCPLSRLFEEPEKPPPTGRPPAPPRAAPREEPLTPRLKPEGAPEPEGVAAPPPKNSFNNPAYYVLEGVPHQLLPPEPPSPARAPVPSATKNKVAITVPAPQLGHHRHPRVGEGSSSDEESGGTLPPPDFPPPPLPDSAIFLPPSLDPLPGPVVRGRGGAEARGPPPPKAHPRPPLPPGPSPASTFLGEVASGDDRSCSVLQMAKTLSEVDYAPAGPARSALLPGPLELQPPRGLPSDYGRPLSFPPPRIRESIQEDLAEEAPCLQGGRASGLGEAGMSAWLRAIGLERYEEGLVHNGWDDLEFLSDITEEDLEEAGVQDPAHKRLLLDTLQLSK
[1]
  fold binding against wild type EphA2: ~2 fold

B2: SHIP2 SAM domain (wild type) (domain or fragment, human, UniProt O15357 1192-1258, looked up)
chain: RASGLGEAGMSAWLRAIGLERYEEGLVHNGWDDLEFLSDITEEDLEEAGVQDPAHKRLLLDTLQLSK
[2]
  Kd: 7.6 µM
EphA2 SAM domain R950T
  fold enhancement of the interaction against the wild-type pair: ~4 fold
[3]
  Kd: 5.2 ± 1.2 µM
  dH: -2.5 kcal/mol
EphA2 SAM domain K917D
  Kd: 9.1 ± 5.7 µM
  dH: -0.85 kcal/mol
EphA2 SAM domain K956D
  Kd: > 50 µM
EphA2 SAM domain K956E
  Kd: > 50 µM
EphA2 SAM domain Y960N
  Kd: 3.1 ± 0.4 µM
  dH: -3 kcal/mol
EphA2 SAM domain K945L
  Kd: 1.3 ± 0.2 µM
  dH: -2.1 kcal/mol
[4]
  Kd: 1.6 ± 0.6 µM
  dH: -2 kcal/mol
EphA1 SAM domain
  Kd: 3.8 ± 0.4 µM
  dH: -3.6 kcal/mol
EphA2 SAM domain R950E
  Kd: 1.7 ± 0.3 µM
  dH: -2.4 kcal/mol
[5]
  Kd: ~10 µM

B3: SHIP2 SAM domain E1226K (domain or fragment, human, UniProt O15357 1192-1258, looked up)
chain: B2 chain with E35K
EphA2 SAM domain K917E
  Kd: 15.4 ± 1.9 µM
  dH: -2 kcal/mol

B4: SHIP2 SAM domain H1219E (domain or fragment, human, UniProt O15357 1192-1258, looked up)
chain: B2 chain with H28E
[6]
  Kd: 4 ± 0.4 µM
  dH: -5.5 kcal/mol
EphA2 SAM domain R950E
  Kd: 11.2 ± 2.7 µM
  dH: -7.5 kcal/mol

B5: SHIP2 SAM domain D1224K (domain or fragment, human, UniProt O15357 1192-1258, looked up)
chain: B2 chain with D33K
EphA2 SAM domain K917D
  Kd: 10 ± 2 µM
  dH: -2.5 kcal/mol

B6: SHIP2 SAM domain H1219R (domain or fragment, human, UniProt O15357 1192-1258, looked up)
chain: B2 chain with H28R
EphA2 SAM domain R950E
  Kd: 1.3 ± 0.1 µM
  dH: -5 kcal/mol

B7: SHIP2 SAM domain D1235K (domain or fragment, human, UniProt O15357 1192-1258, looked up)
chain: B2 chain with D44K
EphA2 SAM domain K956D
  Kd: 7 ± 3 µM
  dH: -0.8 kcal/mol

B8: SHIP2 SAM domain H1219S (domain or fragment, human, UniProt O15357 1192-1258, looked up)
chain: B2 chain with H28S
[7]
  fold enhancement of the interaction against the wild-type pair: ~4 fold

— paper PMC3516615 (Structure (London, England : 1993), 2012)
